Nine molecules from patent US20250250357A1 (NANJING ZAIMING PHARMACEUTICAL, published 2025) can be followed below.

The target of experiment [1] is T1, human MSLN-hFc protein (Acro, Cat. No. MSN-H5253) (human, UniProt Q13421 296-580).
T1 construct: bought protein; also called human MSLN full-length protein; not shown: human Fc (hFc) of the bought protein
As to the kind of experiment: ELISA, coated human MSLN-hFc, antibody 10 nM. (ELISA stands for enzyme-linked immunosorbent assay.)

For experiment [2], the target named is T1, human MSLN-hFc protein (Acro, Cat. No. …). Kind of experiment: ELISA, coated human MSLN-hFc, antibody 1 nM.
For experiment [3] the target is unchanged. Kind of experiment: ELISA, coated human MSLN-hFc, antibody 0.0001 nM.
The target is the same in experiment [4]. As to the kind of experiment: ELISA, coated human MSLN-hFc, antibody 0.1 nM.
Experiment [5] has the same target. Kind of experiment: ELISA, coated human MSLN-hFc, antibody 0.001 nM.
For experiment [6] the target is unchanged. As to the kind of experiment: ELISA, coated human MSLN-hFc, antibody 0.01 nM.
Experiment [7] has the same target. Kind of experiment: ELISA, coated human MSLN-hFc, antibody 100 nM.
Experiment [8] has the same target. Kind of experiment: ELISA, coated human MSLN-hFc, antibody 0.0001 nM. This is another data set of the same source.
Experiment [9] shares this target. Kind of experiment: ELISA, coated human MSLN-hFc, antibody 0.001 nM. This is another data set of the same source.
Experiment [10] shares this target. As to the kind of experiment: ELISA, coated human MSLN-hFc, antibody 1 nM. This is another data set of the same source.
Experiment [11] has the same target. Kind of experiment: ELISA, coated human MSLN-hFc, antibody 100 nM. This is another data set of the same source.
The target is the same in experiment [12]. As to the kind of experiment: ELISA, coated human MSLN-hFc, antibody 0.1 nM. This is another data set of the same source.
Experiment [13] shares this target. As to the kind of experiment: ELISA, coated human MSLN-hFc, antibody 0.01 nM. This is another data set of the same source.
Experiment [14] has the same target. As to the kind of experiment: ELISA, coated human MSLN-hFc, antibody 10 nM. This is another data set of the same source.

T1 sequence (Q13421 other isoform, or with tags, fused parts or gaps limits assumed): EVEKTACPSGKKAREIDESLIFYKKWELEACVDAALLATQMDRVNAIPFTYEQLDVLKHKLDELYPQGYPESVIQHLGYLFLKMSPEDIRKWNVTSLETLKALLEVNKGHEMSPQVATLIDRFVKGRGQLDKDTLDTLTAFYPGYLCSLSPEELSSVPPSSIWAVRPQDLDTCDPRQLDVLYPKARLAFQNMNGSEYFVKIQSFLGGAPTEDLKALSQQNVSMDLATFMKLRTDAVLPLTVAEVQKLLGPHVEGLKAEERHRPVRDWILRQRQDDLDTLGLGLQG

B1: F2.23.12-H5 (scFv, not shown: small tags and cut ends)
scFv: EVQLVQSGAEVKKPGASVKVSCKASGYTFTNYWMHWVRQAPGQGLEWMGNINPSNGGPYYNERFRSRVTMTVDKSTSTAYMELSSLRSEDTAVYYCARPYYGSSYGYFDYWGQGTTVTVSSGGGGSGGGGSGGGGSDIQMTQSPSSLSASVGDRVTITCKASQDINKYIAWYQQKPGKAPKLLIHYTSELQPGVPSRFSGSGSGTDFTFTISSLQPEDIATYYCLQYANPLRTFGGGTKVEIK
notes: also called S009-F2.23.12 humanized VH2 + VL1
On to B1, for which the OD450 nm was determined as 0.83 in [1]; 0.22 in experiment [2]; 0.06 in experiment [3]; 0.09 in experiment [4]; 0.06 in [5]; 0.07 in [6]. The OD450 nm in experiment [7] was found to be 1.37.

B2: F2.23.12-H16 (scFv, not shown: small tags and cut ends)
scFv: EVQLVQSGAEVKKPGASVKVSCKASGYTFTNYWMHWVRQAPGQGLEWMGNINPSQGGPYYNERFRSRVTMTVDKSTSTAYMELSSLRSEDTAVYYCARPYYGSSYGYFDYWGQGTTVTVSSGGGGSGGGGSGGGGSDIQMTQSPSSLSASVGDRVTITCKASQDINKYIAWYQHKPGKAPKLLIHYTSELQPGVPSRFSGSGSGRDYTFTISSLQPEDIATYYCLQYANPLRTFGGGTKVEIK
notes: also called S009-F2.23.12 humanized VH4 + VL4
B2: the OD450 nm stood at 0.64 in experiment [1]; 0.13 in experiment [2]; 0.05 in experiment [3]; 0.07 in experiment [4]; 0.07 in [5]; 0.06 in [6]. In experiment [7], this molecule had an OD450 nm of 1.2.

B3: F2.23.12-H8 (scFv, not shown: small tags and cut ends)
scFv: EVQLVQSGAEVKKPGASVKVSCKASGYTFTNYWMHWVRQAPGQGLEWMGNINPSNGGPYYNERFRSRVTMTVDKSTSTAYMELSSLRSEDTAVYYCARPYYGSSYGYFDYWGQGTTVTVSSGGGGSGGGGSGGGGSDIQMTQSPSSLSASVGDRVTITCKASQDINKYIAWYQHKPGKAPKLLIHYTSELQPGVPSRFSGSGSGRDYTFTISSLQPEDIATYYCLQYANPLRTFGGGTKVEIK
notes: also called S009-F2.23.12 humanized VH2 + VL4
Consider B3, for which the OD450 nm in [1] was 0.62; in experiment [2], 0.17; in experiment [3], 0.05; in [4], 0.09; in experiment [5], 0.07; in experiment [6] it was 0.07. For the same molecule, in [7], the OD450 nm came out at 1.22.

B4: F2.23.12-H1 (scFv, not shown: small tags and cut ends)
scFv: EVQLVQSGAEVKKPGASVKVSCKASGYTFTNYWMHWVRQAPGQGLEWMGNINPSNGGPYYNERFRSRVTMTVDKSTSTVYMELSSLRSEDTAVYYCARPYYGSSYGYFDYWGQGTTVTVSSGGGGSGGGGSGGGGSDIQMTQSPSSLSASVGDRVTITCKASQDINKYIAWYQQKPGKAPKLLIHYTSELQPGVPSRFSGSGSGTDFTFTISSLQPEDIATYYCLQYANPLRTFGGGTKVEIK
notes: also called S009-F2.23.12 humanized VH1 + VL1
Consider B4, for which the OD450 nm in experiment [1] was 0.82; in experiment [2], 0.26; in experiment [3] it was 0.07; in experiment [4], 0.09; in [5], 0.06; in experiment [6], 0.07. The OD450 nm in experiment [7] is 1.22.

B5: F2.23.12-H4 (scFv, not shown: small tags and cut ends)
scFv: EVQLVQSGAEVKKPGASVKVSCKASGYTFTNYWMHWVRQAPGQGLEWMGNINPSNGGPYYNERFRSRVTMTVDKSTSTVYMELSSLRSEDTAVYYCARPYYGSSYGYFDYWGQGTTVTVSSGGGGSGGGGSGGGGSDIQMTQSPSSLSASVGDRVTITCKASQDINKYIAWYQHKPGKAPKLLIHYTSELQPGVPSRFSGSGSGRDYTFTISSLQPEDIATYYCLQYANPLRTFGGGTKVEIK
notes: also called S009-F2.23.12 humanized VH1 + VL4
Regarding B5, the OD450 nm was 0.92 in experiment [1]; 0.57 in [2]; 0.07 in experiment [3]; 0.18 in experiment [4]; 0.08 in experiment [5]; 0.09 in [6]. The molecule further showed an OD450 nm in experiment [7] of 1.22.

B6: F2.23.12-H13 (scFv, not shown: small tags and cut ends)
scFv: EVQLVQSGAEVKKPGASVKVSCKASGYTFTNYWMHWVRQAPGQGLEWMGNINPSQGGPYYNERFRSRVTMTVDKSTSTAYMELSSLRSEDTAVYYCARPYYGSSYGYFDYWGQGTTVTVSSGGGGSGGGGSGGGGSDIQMTQSPSSLSASVGDRVTITCKASQDINKYIAWYQQKPGKAPKLLIHYTSELQPGVPSRFSGSGSGTDFTFTISSLQPEDIATYYCLQYANPLRTFGGGTKVEIK
notes: also called S009-F2.23.12 humanized VH4 + VL1
Turning to B6, the OD450 nm in [1] was 0.73; in experiment [2], 0.16; in experiment [3], 0.05; in experiment [4] it was 0.08; in experiment [5], 0.07; in experiment [6], 0.07. In [7], the OD450 nm stood at 1.38.

B7: F2.39.3-H6 (scFv, not shown: small tags and cut ends)
scFv: EVQLVQSGAEVKKPGASVKVSCKASGYTFTNYWMHWVRQAPGQGLEWMGNINPSSGDSYYNERFMSRVTMTVDKSTSTAYMELSSLRSEDTAVYYCARSGGLWLAFWGQGTLVTVSSGGGGSGGGGSGGGGSDIVMTQSPDSLAVSLGERATINCKSSQTLLNSVSQNNYLAWYQQKPGQSPTLLIYFASTRESGVPDRFSGSGSGTDFTLTISSLQAEDVAVYYCQQHYRTPYTFGGGTKVEIK
notes: also called S009-F2.39.3 humanized VH2 + VL2
As for B7, the OD450 nm is 0.06 in experiment [8]; 0.06 in [9]; 0.31 in experiment [10]; 1.69 in [11]; 0.1 in [12]; 0.07 in [13]. Further, the OD450 nm in [14] is 1.18.

B8: F2.39.3-H9 (scFv, not shown: small tags and cut ends)
scFv: EVQLVQSGAEVKKPGASVKVSCKASGYTFTNYWMHWVRQAPGQGLEWMGNINPSSGDSYYNERFMSRVTMTVDKSTSTAYMELSSLRSEDTAVYYCARSGGLWLAFWGPGTLVTVSSGGGGSGGGGSGGGGSDIVMTQSPDSLAVSLGERATINCKSSQTLLNSVSQNNYLAWYQQKPGQSPKLLIYFASTRESGVPDRFSGSGSGTDFTLTISSLQAEDVAVYYCQQHYRTPYTFGGGTKVEIK
notes: also called S009-F2.39.3 humanized VH3 + VL1
Regarding B8, the OD450 nm came out at 0.05 in experiment [8]; 0.06 in experiment [9]; 0.39 in [10]; 1.81 in experiment [11]; 0.11 in experiment [12]; 0.06 in [13]. Further, the OD450 nm in experiment [14] amounted to 1.22.

B9: F2.39.3-H8 (scFv, not shown: small tags and cut ends)
scFv: EVQLVQSGAEVKKPGASVKVSCKASGYTFTNYWMHWVRQAPGQGLEWMGNINPSSGDSYYNERFMSRVTMTVDKSTSTAYMELSSLRSEDTAVYYCARSGGLWLAFWGQGTLVTVSSGGGGSGGGGSGGGGSDIVMTQTPLSLSVTPGQPASISCKSSQTLLNSVSQNNYLAWYQQKPGQSPTLLVYFASTRESGVPDRFSGSGSGTDFTLKISRVEAEDVGVYYCQQHYRTPYTFGGGTKVEIK
notes: also called S009-F2.39.3 humanized VH2 + VL4
For B9, the OD450 nm in experiment [8] was 0.05; in experiment [9] it was 0.06; in experiment [10], 0.31; in experiment [11], 1.95; in experiment [12], 0.1; in experiment [13], 0.06. Further, the OD450 nm in [14] amounted to 1.17.
